# From the supplement of paper PMC11908140
# B1: library; numbered along this chain (parent)
# chain: MRKPRAAVGSGHRKQAASQEGRQKHAKNNSQAKPSACDGLARQPEEVVLQASVSSYHLFRDVAEVTAFRGSLLSWYDQEKRDLPWRRRAEDEMDLDRRAYAVWVSEVMLQQTQVATVINYYTGWMQKWPTLQDLASASLEEVNQLWAGLGYYSRGRRLQEGARKVVEELGGHMPRTAETLQQLLPGVGRYTAGAIASIAFGQATGVVDGNVARVLCRVRAIGADPSSTLVSQQLWGLAQQLVDPARPGDFNQAAMELGATVCTPQRPLCSQCPVESLCRARQRVEQEQLLASGSLSGSPDVEECAPNTGQCHLCLPPSEPWDQTLGVVNFPRKASRKPPREESSATCVLEQPGALGAQILLVQRPNSGLLAGLWEFPSVTWEPSEQLQRKALLQELQRWAGPLPATHLRHLGEVVHTFSHIKLTYQVYGLALEGQTPVTTVPPGARWLTQEEFHTAAVSTAMKKVFRVYQGQQPGTCMGSKRSQVSSPCSRKKPRMGQQVLDNFFRSHISTDAHSLNSAAQ
# Variants of: B1
# Experiment: 8OG:A repair function score (normalized; synonymous = 0, nonsense = -1) (normalized log-likelihood score); higher = more repair activity (WT-like)
# Settings: with 8OG:A DNA repair reporter (GFP) in HEK-293 MUTYH KO cells
# In short: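 With 10 pg/ml doxycycline, MUTYH knockout HEK-293 cells carrying lentiviral MUTYH cDNA NNN codon-scan libraries were co-transfected with mCherry and an 8OG:A GFP repair reporter. Viable mCherry+ cells were sorted into GFP+ (repair) and GFP− bins at 72 h, three replicates per tile, and tile amplicons were sequenced. Per-tile Rosace fitness scores were then normalized into a repair function score anchored on synonymous and nonsense distributions. Medians were fixed at 0 for synonymous and -1 for nonsense, excluding variants under 300 counts per million at the start.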
row,Variant,8OG:A repair function score
1,MRKPRAAVGSGHRKQAASQEGRQKHAKNNSQAKPSACDGLARQPEEVVLQASVSSYHLFRDVAEVTAFRGSLLSWYDQEKRDLPWRRRAEDEMDLDRRAYAVWVSEVMLQQTQVATVINYYTGVMQKWPTLQDLASASLEEVNQLWAGLGYYSRGRRLQEGARKVVEELGGHMPRTAETLQQLLPGVGRYTAGAIASIAFGQATGVVDGNVARVLCRVRAIGADPSSTLVSQQLWGLAQQLVDPARPGDFNQAAMELGATVCTPQRPLCSQCPVESLCRARQRVEQEQLLASGSLSGSPDVEECAPNTGQCHLCLPPSEPWDQTLGVVNFPRKASRKPPREESSATCVLEQPGALGAQILLVQRPNSGLLAGLWEFPSVTWEPSEQLQRKALLQELQRWAGPLPATHLRHLGEVVHTFSHIKLTYQVYGLALEGQTPVTTVPPGARWLTQEEFHTAAVSTAMKKVFRVYQGQQPGTCMGSKRSQVSSPCSRKKPRMGQQVLDNFFRSHISTDAHSLNSAAQ [W124V],-0.516
2,MRKPRAAVGSGHRKQAASQEGRQKHAKNNSQAKPSACDGLARQPEEVVLQASVSSYHLFRDVAEVTAFRGSLLSWYDQEKRDLPWRRRAEDEMDLDRRAYAVWVSEVMLQQTQVATVINYYTGWMQKWPTLQDLASASLEEVNQLWAGLGYYSRGRRLQEGARKVVEELGGHMPRTAETLQQLLPGVGRYTAGAIASIAFGQATGVVDGNVARVLCRVRAIGAVPSSTLVSQQLWGLAQQLVDPARPGDFNQAAMELGATVCTPQRPLCSQCPVESLCRARQRVEQEQLLASGSLSGSPDVEECAPNTGQCHLCLPPSEPWDQTLGVVNFPRKASRKPPREESSATCVLEQPGALGAQILLVQRPNSGLLAGLWEFPSVTWEPSEQLQRKALLQELQRWAGPLPATHLRHLGEVVHTFSHIKLTYQVYGLALEGQTPVTTVPPGARWLTQEEFHTAAVSTAMKKVFRVYQGQQPGTCMGSKRSQVSSPCSRKKPRMGQQVLDNFFRSHISTDAHSLNSAAQ [D224V],-0.988
3,MRKPRAAVGSGHRKQAASQEGRQKHAKNNSQAKPSACDGLARQPEEVVLQASVSSYHLFRDVAEVTAFRGSLLSWYDQEKRDLPWRRRAEDEMDLDRRAYAVWVSEVMLQQTQVATVINYYTGWMQKWPTLQDLLSASLEEVNQLWAGLGYYSRGRRLQEGARKVVEELGGHMPRTAETLQQLLPGVGRYTAGAIASIAFGQATGVVDGNVARVLCRVRAIGADPSSTLVSQQLWGLAQQLVDPARPGDFNQAAMELGATVCTPQRPLCSQCPVESLCRARQRVEQEQLLASGSLSGSPDVEECAPNTGQCHLCLPPSEPWDQTLGVVNFPRKASRKPPREESSATCVLEQPGALGAQILLVQRPNSGLLAGLWEFPSVTWEPSEQLQRKALLQELQRWAGPLPATHLRHLGEVVHTFSHIKLTYQVYGLALEGQTPVTTVPPGARWLTQEEFHTAAVSTAMKKVFRVYQGQQPGTCMGSKRSQVSSPCSRKKPRMGQQVLDNFFRSHISTDAHSLNSAAQ [A135L],-0.28
4,MRKPRAAVGSGHRKQAASQEGRQKHAKNNSQAKPSACDGLARQPEEVVLQASVSSYHLFRDVAEVTAFRGSLLSWYDQEKRDLPWRRRAEDEMDLDRRAYAVWVSEVMLQQTQVATVINYYTGWMQKWPTLQDLASASLEEVNQLWAGLGYYSRGRRLQEGARKVVEELGGHMPRTAETLQQLLPGVGRYTAGAIASIAFGQATGVVDGNVARVLCRVRAIGADPSSTLVSQQLWGLAQQLVDPARPGDFNQAAMELGATVCTPQRPLCSQCPVESLCRARQRVEQEQLLASGSLSGSPDVEECAPNTGQCHLCLPPSEPWDQTLGVVNFPRKASRKPPREEVSATCVLEQPGALGAQILLVQRPNSGLLAGLWEFPSVTWEPSEQLQRKALLQELQRWAGPLPATHLRHLGEVVHTFSHIKLTYQVYGLALEGQTPVTTVPPGARWLTQEEFHTAAVSTAMKKVFRVYQGQQPGTCMGSKRSQVSSPCSRKKPRMGQQVLDNFFRSHISTDAHSLNSAAQ [S343V],0.0196
5,MRKPRAAVGSGHRKQAASQEGRQKHAKNNSQAKPSACDGLARQPEEVVLQASVSSYHLFRDVAEVTAFRGSLLSWYDQEKRDLPWRRRAEDEMDLDRRAYAVWVSEVMLQQTQVATVINYYTGWMQKWPTLQDLASASLEEVNQLWAGLGYYSRGRRLQEGARKVVEELGGHMPRTAETLQQLLPGVGRYTAGAIASIAFGQATGVVDGNVARVLCRVRAIGADPSSTLVSQQLWGLAQQLVDPARPGDFNNAAMELGATVCTPQRPLCSQCPVESLCRARQRVEQEQLLASGSLSGSPDVEECAPNTGQCHLCLPPSEPWDQTLGVVNFPRKASRKPPREESSATCVLEQPGALGAQILLVQRPNSGLLAGLWEFPSVTWEPSEQLQRKALLQELQRWAGPLPATHLRHLGEVVHTFSHIKLTYQVYGLALEGQTPVTTVPPGARWLTQEEFHTAAVSTAMKKVFRVYQGQQPGTCMGSKRSQVSSPCSRKKPRMGQQVLDNFFRSHISTDAHSLNSAAQ [Q252N],-0.588
6,MRKPRAAVGSGHRKQAASQEGRQKHAKNNSQAKPSACDGLARQPEEVVLQASVSSYHLFRDVAEVTAFRGSLLSWYDQEKRDLPWRRRAEDEMDLDRRAYAVWVSEVMLQQTQVATVINYYTGWMQKWPTLQDLASASLEEVNQLWAGLGYYSRGRRLQEGARKVVEELGGHMPRTAETLQQLLPGVGRYTAGAIASIAFGQATGVVDGNVARVLCRVRAIGADPSSTLVSQQLWGLAQQLVDPARPGDFNQAAMELGATVCTPQRPLCSQCPVESLCRARQRVEQEQLLASGSLSGSPDVEECAPNTGQCHLCLPPSEPWDQTLGVVNFPRKASRKPPREESSATCVLEQPGALGAQILLVQRPNSGLLAGLWEFPSVTWEPSEQLQRVALLQELQRWAGPLPATHLRHLGEVVHTFSHIKLTYQVYGLALEGQTPVTTVPPGARWLTQEEFHTAAVSTAMKKVFRVYQGQQPGTCMGSKRSQVSSPCSRKKPRMGQQVLDNFFRSHISTDAHSLNSAAQ [K390V],-0.164
7,MRKPRAAVGSGHRKQAASQEGRQKHAKNNSQAKPSACDGLARQPEEVVLQASVSSYHLFRDVAEVTAFRGSLLSWYDQEKRDLPWRRRAEDEMDLDRRAYAVWVSEVMLQQTQVATVINYYTGWMQKWPTLQDLASASLEEVNQLWAGLGYYSRGRRLQEGARKVVEELGGHMPRTAETLQQLLPGVGRYTAGAIASIAFGQATGVVDGNVARVLCRVRAIGADPSSTLVSQQLWGLAQQLVDPARPGDFNQAAMELGATVCTPQRPLCSQCPVESLCRARQRVEQEQLLASGSLSGSPDVEECAPNTGQCHLCLPPSEPWDQTLGVVNFPRKASRKPPREESSATCVLEQPGALGAQILLVQRPNSGLLAGLWEFPSVTWEPSEQLQRKALLQELQRWAGPLPATHLRHLGEVVHTFSHIKLTYQVYGLALEGQTPVTTVPPGARWLTQEEFHTAAVNTAMKKVFRVYQGQQPGTCMGSKRSQVSSPCSRKKPRMGQQVLDNFFRSHISTDAHSLNSAAQ [S459N],-0.679
8,MRKPRAAVGSGHRKQAASQEGRQKHAKNNSQAKPSACDGLARQPEEVVLQASVSTYHLFRDVAEVTAFRGSLLSWYDQEKRDLPWRRRAEDEMDLDRRAYAVWVSEVMLQQTQVATVINYYTGWMQKWPTLQDLASASLEEVNQLWAGLGYYSRGRRLQEGARKVVEELGGHMPRTAETLQQLLPGVGRYTAGAIASIAFGQATGVVDGNVARVLCRVRAIGADPSSTLVSQQLWGLAQQLVDPARPGDFNQAAMELGATVCTPQRPLCSQCPVESLCRARQRVEQEQLLASGSLSGSPDVEECAPNTGQCHLCLPPSEPWDQTLGVVNFPRKASRKPPREESSATCVLEQPGALGAQILLVQRPNSGLLAGLWEFPSVTWEPSEQLQRKALLQELQRWAGPLPATHLRHLGEVVHTFSHIKLTYQVYGLALEGQTPVTTVPPGARWLTQEEFHTAAVSTAMKKVFRVYQGQQPGTCMGSKRSQVSSPCSRKKPRMGQQVLDNFFRSHISTDAHSLNSAAQ [S55T],0.00523
9,MRKPRAAVGSGHRKQAASQEGRQKHAKNNSQAKPSACDGLARQPEEVVLQASVSSYHLFRDVAEVTAFRGSLLSWYDQEKRDLPWRRRAEDEMDLDRRAYAVWVSEVMLQQTQVATVINYYTGWMQKWPTLQDLASASLEEVNQLWAGLGYYSRGRRLQEGARKVVEELGGHMPRTAETLQQLLPGVGRYTAGAIASIAFGQATGVVDGNLARVLCRVRAIGADPSSTLVSQQLWGLAQQLVDPARPGDFNQAAMELGATVCTPQRPLCSQCPVESLCRARQRVEQEQLLASGSLSGSPDVEECAPNTGQCHLCLPPSEPWDQTLGVVNFPRKASRKPPREESSATCVLEQPGALGAQILLVQRPNSGLLAGLWEFPSVTWEPSEQLQRKALLQELQRWAGPLPATHLRHLGEVVHTFSHIKLTYQVYGLALEGQTPVTTVPPGARWLTQEEFHTAAVSTAMKKVFRVYQGQQPGTCMGSKRSQVSSPCSRKKPRMGQQVLDNFFRSHISTDAHSLNSAAQ [V211L],-0.586
10,MRKPRAAVGSGHRKQAASQEGRQKHAKNNSQAKPSACDGLARQPEEVVLQASVSSYHLFRDVAEVTAFRGSLLSWYDQEKRDLPWRRRAEDEMDLDRRAYAVWVSEVMLQQTQVATVINYYTGWMQKWPTLQDLASASLEEVNQLWAGLGYYSRGRRLQEGARKVVEELGGHMPRTAETLQQLLPGVGRYTAGAIASIAFGQATGVVDGNVARVLCRVRAIGADPSSTLVSQQLWGLAQQLVDPARPGDFNQAAMELGATVCTPQRPLCSQCPVESLCRARQRVEQEQLLASGSLSGSPDVEECAPNTGQCHLCLPPSEPWDQTLGVVNFPRKASRKPPREESSATCVLEQPGALGAQILLVQRPNSGLLAGLWEFPSVTWEPSEQLQRKALLQELQRWAGPLPATHLRHLGEVVHTFSHIKLTYQVYGLALEGQTPVTTVPPGARWLTQEEFHTAAVSTAMKKVFRVYQGQQPGTCMGSKRSQVSSPCSRKKPRMGQQVLDNFFRSHISHDAHSLNSAAQ [T511H],0.0209
11,MRKPRAAVGSGHRKQAASQEGRQKHAKNNSQAKPSACDGLARQPEEVVLQASVSSYHLFRDVAEVTAFRGSLLSWYDQEKRDLPWRRRAEDEMDLDRRAYAVWVSEVMLQQTQVATVINYYTGWMQKWPTLQDLASASLEEVNQLWAGLGYYSRGRRLQEGARKVVEELGGHMPRTAETLQQLLPGVGRYTAGAIASIAFGQATGVVDGNVARVLCRVRAYGADPSSTLVSQQLWGLAQQLVDPARPGDFNQAAMELGATVCTPQRPLCSQCPVESLCRARQRVEQEQLLASGSLSGSPDVEECAPNTGQCHLCLPPSEPWDQTLGVVNFPRKASRKPPREESSATCVLEQPGALGAQILLVQRPNSGLLAGLWEFPSVTWEPSEQLQRKALLQELQRWAGPLPATHLRHLGEVVHTFSHIKLTYQVYGLALEGQTPVTTVPPGARWLTQEEFHTAAVSTAMKKVFRVYQGQQPGTCMGSKRSQVSSPCSRKKPRMGQQVLDNFFRSHISTDAHSLNSAAQ [I221Y],-0.63
12,MRKPRAAVGSGHRKQAASQEGRQKHAKNNSQAKPSACDGLARQPEEVVLQASVSSYHLFRDVAEVTAFRGSLLSWYDQEKRDLPWRRRAEDEMDLDRRAYAVWVSEVMLQQTQVATVINYYTGWMQKWPTLQDLASASLEEVNQLWAGLGYYSRGRGLQEGARKVVEELGGHMPRTAETLQQLLPGVGRYTAGAIASIAFGQATGVVDGNVARVLCRVRAIGADPSSTLVSQQLWGLAQQLVDPARPGDFNQAAMELGATVCTPQRPLCSQCPVESLCRARQRVEQEQLLASGSLSGSPDVEECAPNTGQCHLCLPPSEPWDQTLGVVNFPRKASRKPPREESSATCVLEQPGALGAQILLVQRPNSGLLAGLWEFPSVTWEPSEQLQRKALLQELQRWAGPLPATHLRHLGEVVHTFSHIKLTYQVYGLALEGQTPVTTVPPGARWLTQEEFHTAAVSTAMKKVFRVYQGQQPGTCMGSKRSQVSSPCSRKKPRMGQQVLDNFFRSHISTDAHSLNSAAQ [R157G],-0.381
